Data on two molecules can be found in PMC10018365, “Cryo-EM structure of the fully assembled Elongator complex” (Nucleic Acids Research, 2023).

Series [1] deals with the molecule itself. Briefly: cryo-EM structure; ScElongator purified from overexpressing yeast, native sample (4.35 Å) and BS3-stabilised sample (6.6 Å; two-lobed map 17.2 Å); sample buffer 20 mM HEPES pH 7.5, 100 mM NaCl, 3 mM DTT.
For series [2], the target named is T1, Homo sapiens Elp123 subcomplex, wild type (Homo sapiens, UniProt O95163 1-1332; Q6IA86 1-826; Q9H9T3 1-547).
T1 construct: Elp1, human, ORF; Elp2, human, ORF; Elp3, human, ORF; also called human Elp123; source: Sf9-3 insect cells (baculovirus, biGBac), purified (StrepTrap, heparin, Superose 6); not shown: Twin-Strep-tag, C-terminal, kept; copies: 2 + 2 + 2
T1 sequence (O95163 whole entry, chain 1 of 3): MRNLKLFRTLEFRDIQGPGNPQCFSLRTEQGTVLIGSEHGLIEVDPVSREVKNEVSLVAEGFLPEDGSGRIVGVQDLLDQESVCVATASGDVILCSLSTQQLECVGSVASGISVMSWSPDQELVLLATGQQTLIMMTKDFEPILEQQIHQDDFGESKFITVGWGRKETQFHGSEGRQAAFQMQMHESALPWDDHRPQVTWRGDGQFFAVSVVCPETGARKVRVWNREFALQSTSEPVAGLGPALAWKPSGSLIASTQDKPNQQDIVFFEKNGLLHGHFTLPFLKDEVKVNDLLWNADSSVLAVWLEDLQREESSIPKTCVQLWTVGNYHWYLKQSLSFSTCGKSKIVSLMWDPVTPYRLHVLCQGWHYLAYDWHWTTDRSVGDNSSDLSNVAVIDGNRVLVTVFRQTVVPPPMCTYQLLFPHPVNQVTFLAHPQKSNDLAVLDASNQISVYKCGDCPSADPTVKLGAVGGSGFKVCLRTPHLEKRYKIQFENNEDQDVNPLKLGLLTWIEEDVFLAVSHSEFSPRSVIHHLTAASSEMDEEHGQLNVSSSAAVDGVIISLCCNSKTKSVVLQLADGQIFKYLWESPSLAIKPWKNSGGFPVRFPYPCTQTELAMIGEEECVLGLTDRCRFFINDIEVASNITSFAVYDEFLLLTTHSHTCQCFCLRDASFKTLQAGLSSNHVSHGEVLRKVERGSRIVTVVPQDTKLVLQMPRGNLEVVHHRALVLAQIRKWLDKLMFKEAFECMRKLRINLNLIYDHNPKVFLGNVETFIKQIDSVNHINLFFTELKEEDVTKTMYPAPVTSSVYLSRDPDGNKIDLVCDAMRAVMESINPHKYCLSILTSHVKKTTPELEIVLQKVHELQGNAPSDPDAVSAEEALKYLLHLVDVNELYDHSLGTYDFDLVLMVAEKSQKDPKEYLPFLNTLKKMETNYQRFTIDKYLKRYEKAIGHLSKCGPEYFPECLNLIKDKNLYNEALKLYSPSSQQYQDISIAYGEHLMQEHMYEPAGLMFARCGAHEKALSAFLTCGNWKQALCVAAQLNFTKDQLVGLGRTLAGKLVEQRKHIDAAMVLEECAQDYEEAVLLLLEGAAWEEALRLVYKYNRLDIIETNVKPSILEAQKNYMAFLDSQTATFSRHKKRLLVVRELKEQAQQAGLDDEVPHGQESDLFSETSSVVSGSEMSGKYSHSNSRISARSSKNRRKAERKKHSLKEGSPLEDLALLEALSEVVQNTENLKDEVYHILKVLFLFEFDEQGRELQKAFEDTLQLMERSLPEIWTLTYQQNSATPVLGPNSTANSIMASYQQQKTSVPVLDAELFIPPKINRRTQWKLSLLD
T1 sequence (Q6IA86 whole entry, chain 2 of 3): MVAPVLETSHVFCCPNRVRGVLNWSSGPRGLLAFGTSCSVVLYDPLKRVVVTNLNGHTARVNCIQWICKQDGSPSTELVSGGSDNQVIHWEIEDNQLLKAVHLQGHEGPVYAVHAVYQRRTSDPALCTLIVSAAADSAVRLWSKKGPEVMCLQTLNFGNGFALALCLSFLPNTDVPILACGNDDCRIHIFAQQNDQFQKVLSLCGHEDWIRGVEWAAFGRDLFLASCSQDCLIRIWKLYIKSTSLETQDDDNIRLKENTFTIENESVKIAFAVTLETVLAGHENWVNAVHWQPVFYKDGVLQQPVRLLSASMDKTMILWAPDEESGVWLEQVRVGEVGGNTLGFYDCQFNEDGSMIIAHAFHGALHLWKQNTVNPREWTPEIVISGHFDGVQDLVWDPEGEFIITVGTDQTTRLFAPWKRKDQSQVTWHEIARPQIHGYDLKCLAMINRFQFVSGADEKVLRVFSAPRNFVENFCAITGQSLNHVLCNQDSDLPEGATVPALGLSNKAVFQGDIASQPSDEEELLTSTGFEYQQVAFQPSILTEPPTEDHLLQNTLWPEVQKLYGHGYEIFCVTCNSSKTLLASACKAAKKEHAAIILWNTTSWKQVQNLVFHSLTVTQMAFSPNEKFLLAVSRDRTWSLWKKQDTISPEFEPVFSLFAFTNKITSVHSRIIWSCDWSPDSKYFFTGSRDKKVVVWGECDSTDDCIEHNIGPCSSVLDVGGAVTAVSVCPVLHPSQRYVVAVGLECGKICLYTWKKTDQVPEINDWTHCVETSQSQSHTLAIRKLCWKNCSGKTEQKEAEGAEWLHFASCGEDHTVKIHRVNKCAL
T1 sequence (Q9H9T3 whole entry, chain 3 of 3): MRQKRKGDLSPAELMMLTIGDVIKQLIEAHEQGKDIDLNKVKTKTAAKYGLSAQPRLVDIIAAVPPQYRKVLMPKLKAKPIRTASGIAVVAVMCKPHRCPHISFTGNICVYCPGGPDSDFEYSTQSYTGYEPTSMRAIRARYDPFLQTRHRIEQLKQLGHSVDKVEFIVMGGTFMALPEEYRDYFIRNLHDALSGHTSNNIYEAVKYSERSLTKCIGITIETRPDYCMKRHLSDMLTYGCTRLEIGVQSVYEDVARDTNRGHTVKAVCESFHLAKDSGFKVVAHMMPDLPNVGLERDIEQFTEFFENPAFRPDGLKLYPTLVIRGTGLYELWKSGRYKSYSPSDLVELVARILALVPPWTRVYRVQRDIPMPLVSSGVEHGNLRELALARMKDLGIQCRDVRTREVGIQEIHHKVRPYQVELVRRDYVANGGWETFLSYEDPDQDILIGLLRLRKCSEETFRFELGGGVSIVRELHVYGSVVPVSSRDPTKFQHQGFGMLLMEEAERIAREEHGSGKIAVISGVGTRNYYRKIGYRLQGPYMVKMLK
Briefly: pull-down; 10 μg bait, 20 μg prey; Elp123 on StrepTactin Sepharose by Twin-Strep-tagged Elp3, or Elp456 on anti-DYKDDDDK resin by FLAG-tagged Elp6; 30-60 min at 4°C; washes in 20 mM HEPES pH 7.5, 100 mM NaCl, 1 mM DTT, 0.05% Tween 20; SDS-PAGE with Coomassie or silver stain; also with ATP and bulk tRNA. As to conditions: both partners purified.

B1: Saccharomyces cerevisiae Elp1 (natural protein, UniProt Q06706 1-1349, looked up)
chain: MVEHDKSGSKRQELRSNMRNLITLNKGKFKPTASTAEGDEDDLSFTLLDSVFDTLSDSITCVLGSTDIGAIEVQQFMKDGSRNVLASFNIQTFDDKLLSFVHFADINQLVFVFEQGDIITATYDPVSLDPAETLIEIMGTIDNGIAAAQWSYDEETLAMVTKDRNVVVLSKLFEPISEYHLEVDDLKISKHVTVGWGKKETQFRGKGARAMEREALASLKASGLVGNQLRDPTMPYMVDTGDVTALDSHEITISWRGDCDYFAVSSVEEVPDEDDETKSIKRRAFRVFSREGQLDSASEPVTGMEHQLSWKPQGSLIASIQRKTDLGEEDSVDVIFFERNGLRHGEFDTRLPLDEKVESVCWNSNSEALAVVLANRIQLWTSKNYHWYLKQELYASDISYVKWHPEKDFTLMFSDAGFINIVDFAYKMAQGPTLEPFDNGTSLVVDGRTVNITPLALANVPPPMYYRDFETPGNVLDVACSFSNEIYAAINKDVLIFAAVPSIEEMKKGKHPSIVCEFPKSEFTSEVDSLRQVAFINDSIVGVLLDTDNLSRIALLDIQDITQPTLITIVEVYDKIVLLRSDFDYNHLVYETRDGTVCQLDAEGQLMEITKFPQLVRDFRVKRVHNTSAEDDDNWSAESSELVAFGITNNGKLFANQVLLASAVTSLEITDSFLLFTTAQHNLQFVHLNSTDFKPLPLVEEGVEDERVRAIERGSILVSVIPSKSSVVLQATRGNLETIYPRIMVLAEVRKNIMAKRYKEAFIVCRTHRINLDILHDYAPELFIENLEVFINQIGRVDYLNLFISCLSEDDVTKTKYKETLYSGISKSFGMEPAPLTEMQIYMKKKMFDPKTSKVNKICDAVLNVLLSNPEYKKKYLQTIITAYASQNPQNLSAALKLISELENSEEKDSCVTYLCFLQDVNVVYKSALSLYDVSLALLVAQKSQMDPREYLPFLQELQDNEPLRRKFLIDDYLGNYEKALEHLSEIDKDGNVSEEVIDYVESHDLYKHGLALYRYDSEKQNVIYNIYAKHLSSNQMYTDAAVAYEMLGKLKEAMGAYQSAKRWREAMSIAVQKFPEEVESVAEELISSLTFEHRYVDAADIQLEYLDNVKEAVALYCKAYRYDIASLVAIKAKKDELLEEVVDPGLGEGFGIIAELLADCKGQINSQLRRLRELRAKKEENPYAFYGQETEQADDVSVAPSETSTQESFFTRYTGKTGGTAKTGASRRTAKNKRREERKRARGKKGTIYEEEYLVQSVGRLIERLNQTKPDAVRVVEGLCRRNMREQAHQIQKNFVEVLDLLKANVKEIYSISEKDRERVNENGEVYYIPEIPVPEIHDFPKSHIVDF
notes: Elp1, S. cerevisiae, full-length ORF; also called ScElp1; source: S. cerevisiae DS1-2b, overexpressed, purified within ScElongator
Consider B1, for which the binding result in series [1] is given as “binds”.

B2: Homo sapiens Elp456 subcomplex with Elp4 Δ133–175 (complex)
chain 1: MAAVATCGSVAASTGSAVATASKSNVTSFQRRGPRASVTNDSGPRLVSIAGTRPSVRNGQLLVSTGLPALDQLLGGGLAVGTVLLIEEDKYNIYSPLLFKYFLAEGIVNGHTLLVASAKEDPANILQELPAPSSSRFGHYYDASKRMPQELIEASNWHGFFLPEKISSTLKVEPCSLTPGYTKLLQFIQNIIYEEGFDGSNPQKKQRNILRIGIQNLGSPLWGDDICCAENGGNSHSLTKFLYVLRGLLRTSLSACIITMPTHLIQNKAIIARVTTLSDVVVGLESFIGSERETNPLYKDYHGLIHIRQIPRLNNLICDESDVKDLAFKLKRKLFTIERLHLPPDLSDTVSRSSKMDLAESAKRLGPGCGMMAGGKKHLDF
chain 2: MLDSLLALGGLVLLRDSVEWEGRSLLKALVKKSALCGEQVHILGCEVSEEEFREGFDSDINNRLVYHDFFRDPLNWSKTEEAFPGGPLGALRAMCKRTDPVPVTIALDSLSWLLLRLPCTTLCQVLHAVSHQDSCPGDSSSVGKVSVLGLLHEELHGPGPVGALSSLAQTEVTLGGTMGQASAHILCRRPRQRPTDQTQWFSILPDFSLDLQEGPSVESQPYSDPHIPPVDPTTHLTFNLHLSKKEREARDSLILPFQFSSEKQQALLRPRPGQATSHIFYEPDAYDDLDQEDPDDDLDI
chain 3: MFVELNNLLNTTPDRAEQGKLTLLCDAKTDGSFLVHHFLSFYLKANCKVCFVALIQSFSHYSIVGQKLGVSLTMARERGQLVFLEGLKSAVDVVFQAQKEPHPLQFLREANAGNLKPLFEFVREALKPVDSGEARWTYPVLLVDDLSVLLSLGMGAVAVLDFIHYCRATVCWELKGNMVVLVHDSGDAEDEENDILLNGLSHQSHLILRAEGLATGFCRDVHGQLRILWRRPSQPAVHRDQSFTYQYKIQDKSVSFFAKGMSPAVL
notes: Elp5, human, ORF; Elp6, human, ORF; source: Hi-5 insect cells (baculovirus, biGBac), purified (IgG Sepharose with TEV elution, Superose 6); not shown: FLAG, C-terminal, kept; Protein A, C-terminal, cleaved; copies: 2 + 2 + 2
Consider B2, for which the binding result in series [2] was “binds”.
